Our source for the binding signal (fold of wild type binding (comparable)) and binding signal (fold of wild type binding) values is paper PMC3017548.

Holding throughout (assay): filter binding
For series [1], the system named is Gadd45a K45A (Xenopus tropicalis). The conditions noted are these: loss of discrimination between vector and total RNA in competition; 10 mM Tris-HCl pH 7.4, 10 mM KCl, 1 mM MgCl2; 2.5 or 1.3 uM protein, ~2 ng 32P-MCS RNA, 20 min; temperature not given; nitrocellulose filter.
The subject of series [2] is Gadd45a G39A (Xenopus tropicalis). As to conditions: loss of discrimination between vector and total RNA in competition; 10 mM Tris-HCl pH 7.4, 10 mM KCl, 1 mM MgCl2; 2.5 or 1.3 uM protein, ~2 ng 32P-MCS RNA, 20 min; temperature not given; nitrocellulose filter.
The test system of series [3] is Gadd45a R34G (Xenopus tropicalis). The conditions noted are these: 10 mM Tris-HCl pH 7.4, 10 mM KCl, 1 mM MgCl2; 2.5 or 1.3 uM protein, ~2 ng 32P-MCS RNA, 20 min; temperature not given; nitrocellulose filter.
Series [4] has as its system Gadd45a V49R (Xenopus tropicalis). The conditions noted are these: 10 mM Tris-HCl pH 7.4, 10 mM KCl, 1 mM MgCl2; 2.5 or 1.3 uM protein, ~2 ng 32P-MCS RNA, 20 min; temperature not given; nitrocellulose filter.

As to “MCS RNA (multiple cloning site transcript)”, the binding signal (fold of wild type binding (comparable)) in series [1], in series [2] and in series [3] was 1 each time. The substance also showed a binding signal (fold of wild type binding) in series [4] of 3.
